Experimental data as given in article PMC11949031.
Where a chain is given by its changes, count along the chain named. Values belong to the binder of their own block, whether it stands above or below them.

Tests used:
Assay in all cases: Ni-NTA pull-down with immunoblot quantification (ImageJ)
Conditions in all cases: chain shown with the change; U2OS UNC45A-KO cells cotransfected; 5 independent experiments; parent: est. 1; read off a plot
[1] = biological target: T1, His-tagged UNC45A p.Leu237Pro mutant, Q9H3U1-1
T1 chain: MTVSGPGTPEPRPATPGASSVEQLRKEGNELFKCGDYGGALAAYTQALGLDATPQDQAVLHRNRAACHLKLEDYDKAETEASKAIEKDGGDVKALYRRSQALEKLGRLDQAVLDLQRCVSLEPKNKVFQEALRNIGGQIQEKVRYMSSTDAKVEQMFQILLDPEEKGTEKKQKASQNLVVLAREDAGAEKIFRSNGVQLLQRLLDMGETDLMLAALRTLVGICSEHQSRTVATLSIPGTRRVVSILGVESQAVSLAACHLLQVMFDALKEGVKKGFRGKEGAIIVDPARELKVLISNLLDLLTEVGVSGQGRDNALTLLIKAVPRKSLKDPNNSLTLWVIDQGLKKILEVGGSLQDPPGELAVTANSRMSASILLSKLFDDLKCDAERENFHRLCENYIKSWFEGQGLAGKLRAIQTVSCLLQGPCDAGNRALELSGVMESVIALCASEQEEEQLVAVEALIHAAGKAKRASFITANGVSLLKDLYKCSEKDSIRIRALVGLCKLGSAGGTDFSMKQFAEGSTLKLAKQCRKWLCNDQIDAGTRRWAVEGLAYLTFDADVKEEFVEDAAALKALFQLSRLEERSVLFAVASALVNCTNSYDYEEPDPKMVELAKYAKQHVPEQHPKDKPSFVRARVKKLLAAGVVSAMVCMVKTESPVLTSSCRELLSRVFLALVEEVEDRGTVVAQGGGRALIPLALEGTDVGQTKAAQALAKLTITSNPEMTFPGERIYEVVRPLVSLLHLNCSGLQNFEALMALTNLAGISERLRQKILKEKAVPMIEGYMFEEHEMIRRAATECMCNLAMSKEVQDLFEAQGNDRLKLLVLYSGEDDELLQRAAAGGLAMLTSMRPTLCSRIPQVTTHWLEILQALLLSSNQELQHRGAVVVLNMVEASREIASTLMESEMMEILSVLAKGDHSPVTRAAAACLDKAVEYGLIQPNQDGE

[2] = biological target: T2, His-tagged UNC45A wild-type, Q9H3U1-1
T2 chain: T1 chain with P237L

[3] = biological target: T3, HA-tagged UNC45A wild-type (Unc-45 myosin chaperone A), Q9H3U1-1
T3 chain: T1 chain with P237L

- ratio to parent [1]: 12 fold change
B1: m1 (prey) and m3 (bait) p.Leu237Pro (HA-tagged prey); p.Leu237Pro (His-tagged bait) (protein)
chain: T1 chain

- ratio to parent [2]: 1.6 fold change
B2: HA-tagged UNC45A wild-type (Unc-45 myosin chaperone A), Q9H3U1-1 p.Leu237Pro (protein)
chain: T1 chain

- ratio to parent [3]: 2.2 fold change
B3: His-tagged UNC45A wild-type, Q9H3U1-1 p.Leu237Pro (protein)
chain: T1 chain
